Measurements taken from patent publication US20160193299A1, “MODIFIED NUCLEOSIDE, NUCLEOTIDE, AND NUCLEIC ACID COMPOSITIONS” (Moderna Therapeutics, Inc., priority 2011, published 2016).

What was measured:
[1] = tested on: neutrophil count; experiment: Example 41 intravenous administration of lipoplexed G-CSF mRNA, neutrophil count; assay type: in vivo; details: mice IV, 10% lipoplex, 50 ug at days 0, 2, 4; day 5
Protocol: Neutrophils were measured at days 1, 5 and 8. Controls included non-specific mammalian RNA or the formulation buffer alone (F.Buffer). The mice were bled at days 1, 5 and 8 to determine the effect of mRNA-encoded human G-CSF to increase neutrophil count. The dosing regimen is shown in Table 64 as are the resulting neutrophil counts (thousands/uL; K/uL).

[2] = tested on: red blood cell (RBC); experiment: Example 22 non-human primate study, red blood cell (RBC) count; assay type: in vivo, cynomolgus monkey
Protocol: (§1) LNP formulations, shown in Table 31 (above), were administered to non-human primates (NHP) (cynomolgus monkey) (n=2) as intravenous injection (IV). The NHP were administered a single modified mRNA IV dose of 0.5 mg/kg, 0.05 mg/kg or 0.005 mg/kg of G-CSF or EPO in a dose volume of 0.5 mL/kg. The NHPs were bled before dosing with the modified mRNA LNP formulations to determine protein expression in the serum and a baseline complete blood count. After administration with the G-CSF modified mRNA formulation the NHP were bled at 8, 24, 48 and 72 hours to determined protein expression. After administration with the EPO modified mRNA formulation the NHP were bled at 8, 24, 48, 72 hours and 7 days to determined protein expression.

[3] = tested on: G-CSF; experiment: Example 18 time course in vivo study, serum G-CSF ELISA; details: mice IV
Protocol: (§2) Formulations, listed in Table 31, were characterized by particle size, zeta potential, and encapsulation.
LNP formulations, shown in Table 31 (above), were administered to mice (n=5) intravenously (IV) at a single modified mRNA dose of 0.5, 0.05 or 0.005 mg/kg. The mice were bled at 8 hours, 24 hours, 72 hours and 6 days after they were administered with G-CSF or EPO modified mRNA formulations to determine protein expression using ELISA.

[4] = tested on: G-CSF; experiment: Example 19 LNP formulations in mice, serum G-CSF ELISA; assay type: in vivo; details: for G-CSF Serum Concentration: mice IV (n=4); for G-CSF protein expression detectable at least out to: mice IV
Protocol: as §2
LNP formulations, shown in Table 31 (above), were administered to mice (n=4) intravenously (IV) at a single modified mRNA dose 0.05 mg/kg or 0.005 mg/kg. There was also 3 control groups of mice (n=4) that were untreated. The mice were bled at 2 hours, 8 hours, 24 hours, 48 hours and 72 hours after they were administered with G-CSF or EPO modified mRNA formulations to determine the protein expression. Protein expression of G-CSF and EPO were determined using ELISA.

[5] = tested on: hematocrit (HCT); experiment: Example 22 non-human primate study, hematocrit (HCT); assay type: in vivo, cynomolgus monkey
Protocol: as §1

[6] = tested on: neutrophil count; experiment: Example 40 multi-site IM and SC administration of G-CSF mRNA, neutrophil count; assay type: in vivo; details: mice, intramuscular, day 3
Protocol: Injection of four doses or 2×50 ug (two sites) daily for three days (24 hrs interval) was performed. The fourth dose was administered 6 hrs before blood collection and CBC analysis. […] The mice were bled at 72 hours after the first mRNA injection (6 hours after the last mRNA dose) to determine the effect of mRNA-encoded human G-CSF on the neutrophil count. The dosing regimen is shown in Table 63 as are the resulting neutrophil counts (thousands/uL). In Table 63, an asterisks (*) indicate statistical significance at p<0.05.

[7] = tested on: G-CSF; experiment: Example 16 lipid nanoparticle in vivo study, serum G-CSF ELISA; design: species or system mice; details: 100 ug
[8] = tested on: IFN-alpha; experiment: Example 45 cytokine study in PBMC, IFN-alpha ELISA; assay type: cell-based, human; details: human PBMC, Lipofectamine 2000
Protocol: The plates were then incubated at 37 C.
Each condition was done in duplicate.
Shown in Tables 69 and 70 are the average from 2 separate PBMC donors of the G-CSF and IFN-alpha production over time as measured by specific ELISA.

[9] = Female NHP, 0.005 mg/kg, 14/18 days
[10] = Female NHP, 0.005 mg/kg, 24 hours
[11] = Female NHP, 0.005 mg/kg, 3 days
[12] = Female NHP, 0.005 mg/kg, 7 days
[13] = Female NHP, 0.005 mg/kg, Pre-dose
[14] = Female NHP, 0.05 mg/kg, 14/18 days
[15] = Female NHP, 0.05 mg/kg, 24 hours
[16] = Female NHP, 0.05 mg/kg, Pre-dose
[17] = Female NHP, 0.5 mg/kg, 14/18 days
[18] = Female NHP, 0.5 mg/kg, 24 hours
[19] = Female NHP, 0.5 mg/kg, Pre-dose
[20] = Male NHP, 0.005 mg/kg, 14/18 days
[21] = Male NHP, 0.005 mg/kg, 24 hours
[22] = Male NHP, 0.005 mg/kg, Pre-dose
[23] = Male NHP, 0.05 mg/kg, 14/18 days
[24] = Male NHP, 0.5 mg/kg, 14/18 days

B1: G-CSF: human G-CSF mRNA SEQ ID NO: 6, polyA ~160 nt, Cap1, fully modified with 5-methylcytosine and pseudouridine (nucleic acid, listed as Homo sapiens)
chain: GGGAAAUAAGAGAGAAAAGAAGAGUAAGAAGAAAUAUAAGAGCCACCAUGGCCGGUCCCGCGACCCAAAGCCCCAUGAAACUUAUGGCCCUGCAGUUGCUGCUUUGGCACUCGGCCCUCUGGACAGUCCAAGAAGCGACUCCUCUCGGACCUGCCUCAUCGUUGCCGCAGUCAUUCCUUUUGAAGUGUCUGGAGCAGGUGCGAAAGAUUCAGGGCGAUGGAGCCGCACUCCAAGAGAAGCUCUGCGCGACAUACAAACUUUGCCAUCCCGAGGAGCUCGUACUGCUCGGGCACAGCUUGGGGAUUCCCUGGGCUCCUCUCUCGUCCUGUCCGUCGCAGGCUUUGCAGUUGGCAGGGUGCCUUUCCCAGCUCCACUCCGGUUUGUUCUUGUAUCAGGGACUGCUGCAAGCCCUUGAGGGAAUCUCGCCAGAAUUGGGCCCGACGCUGGACACGUUGCAGCUCGACGUGGCGGAUUUCGCAACAACCAUCUGGCAGCAGAUGGAGGAACUGGGGAUGGCACCCGCGCUGCAGCCCACGCAGGGGGCAAUGCCGGCCUUUGCGUCCGCGUUUCAGCGCAGGGCGGGUGGAGUCCUCGUAGCGAGCCACCUUCAAUCAUUUUUGGAAGUCUCGUACCGGGUGCUGAGACAUCUUGCGCAGCCGUGAAGCGCUGCCUUCUGCGGGGCUUGCCUUCUGGCCAUGCCCUUCUUCUCUCCCUUGCACCUGUACCUCUUGGUCUUUGAAUAAAGCCUGAGUAGGAAG
modifications: polyA ~160, Cap1, 5mC/pseudouridine modified
[1]
  increase in neutrophil count above control: four to five fold increase
[2]; [9]
  RBC: 5.34 10^12/L
[2]; [10]
  RBC: 5.35 10^12/L
[2]; [11]
  RBC: 5.24 10^12/L
[2]; [12]
  RBC: 5.34 10^12/L
[2]; [13]
  RBC: 5.36 10^12/L
[2]; [14]
  RBC: 5.26 10^12/L
[2]; [15]
  RBC: 5.08 10^12/L
[2]; Female NHP, 0.05 mg/kg, 3 days
  RBC: 5.04 10^12/L
[2]; Female NHP, 0.05 mg/kg, 7 days
  RBC: 5.05 10^12/L
[2]; [16]
  RBC: 5.64 10^12/L
[2]; [17]
  RBC: 4.92 10^12/L
[2]; [18]
  RBC: 4.96 10^12/L
[2]; Female NHP, 0.5 mg/kg, 3 days
  RBC: 4.97 10^12/L
[2]; Female NHP, 0.5 mg/kg, 7 days
  RBC: 5.04 10^12/L
[2]; [19]
  RBC: 5.57 10^12/L
[2]; [20]
  RBC: 5.37 10^12/L
[2]; [21]
  RBC: 5.34 10^12/L
[2]; Male NHP, 0.005 mg/kg, 3 days
  RBC: 5.32 10^12/L
[2]; Male NHP, 0.005 mg/kg, 7 days
  RBC: 5.25 10^12/L
[2]; [22]
  RBC: 5.67 10^12/L
[2]; [23]
  RBC: 5.43 10^12/L
[2]; Male NHP, 0.05 mg/kg, 24 hours
  RBC: 4.96 10^12/L
[2]; Male NHP, 0.05 mg/kg, 3 days
  RBC: 5.13 10^12/L
[2]; Male NHP, 0.05 mg/kg, 7 days
  RBC: 5.17 10^12/L
[2]; Male NHP, 0.05 mg/kg, Pre-dose
  RBC: 5.68 10^12/L
[2]; [24]
  RBC: 4.21 10^12/L
[2]; Male NHP, 0.5 mg/kg, 24 hours
  RBC: 4.66 10^12/L
[2]; Male NHP, 0.5 mg/kg, 3 days
  RBC: 4.91 10^12/L
[2]; Male NHP, 0.5 mg/kg, 7 days
  RBC: 4.8 10^12/L
[2]; Male NHP, 0.5 mg/kg, Pre-dose
  RBC: 5.57 10^12/L
[3]; 0.005 mg/kg and 0.05 mg/kg
  G-CSF protein expression detectable out to: 72 h
[3]; 0.005 mg/kg, 8 hours
  G-CSF Serum Concentration: 11,550.6 pg/ml
[3]; 0.005 mg/kg, 24 hours
  G-CSF Serum Concentration: 5,068.9 pg/ml
[3]; 0.05 mg/kg, 8 hours
  G-CSF Serum Concentration: 462,312.5 pg/ml
[3]; 0.05 mg/kg, 24 hours
  G-CSF Serum Concentration: 80,903.8 pg/ml
[3]; 0.5 mg/kg, 8 hours
  G-CSF Serum Concentration: >1,250,000 pg/ml
[3]; 0.5 mg/kg, 24 hours
  G-CSF Serum Concentration: 495,812.5 pg/ml
[3]; 0.5 mg/kg, 72 hours
  G-CSF Serum Concentration: 1,325.6 pg/ml
[4]; 0.005 mg/kg, 2 hours
  G-CSF Serum Concentration: 3,447.8 pg/ml
[4]; 0.005 mg/kg, 8 hours
  G-CSF Serum Concentration: 11,454.0 pg/ml
[4]; 0.005 mg/kg, 24 hours
  G-CSF Serum Concentration: 4,960.2 pg/ml
[4]; 0.005 mg/kg, 48 hours
  G-CSF Serum Concentration: 686.4 pg/mL
[4]; 0.05 mg/kg, 2 hours
  G-CSF Serum Concentration: 20,951.4 pg/ml
[4]; 0.05 mg/kg, 8 hours
  G-CSF Serum Concentration: 70,012.8 pg/ml
[4]; 0.05 mg/kg, 24 hours
  G-CSF Serum Concentration: 19,356.2 pg/ml
[4]; 0.05 mg/kg, 48 hours
  G-CSF Serum Concentration: 1,963.0 pg/ml
[4]; 0.05 mg/kg, 72 hours
  G-CSF Serum Concentration: 47.3 pg/mL
[4]; 0.005 mg/kg
  G-CSF protein expression detectable at least out to: ≥ 48 h
[4]; 0.05 mg/kg
  G-CSF protein expression detectable at least out to: ≥ 72 h
[5]; [9]
  HCT: 0.42 L/L
[5]; [10]
  HCT: 0.42 L/L
[5]; [11]
  HCT: 0.41 L/L
[5]; [12]
  HCT: 0.42 L/L
[5]; [13]
  HCT: 0.42 L/L
[5]; [14]
  HCT: 0.4 L/L
[5]; [15]
  HCT: 0.4 L/L
[5]; Female NHP, 0.05 mg/kg, 3 days
  HCT: 0.39 L/L
[5]; Female NHP, 0.05 mg/kg, 7 days
  HCT: 0.4 L/L
[5]; [16]
  HCT: 0.44 L/L
[5]; [17]
  HCT: 0.37 L/L
[5]; [18]
  HCT: 0.38 L/L
[5]; Female NHP, 0.5 mg/kg, 3 days
  HCT: 0.38 L/L
[5]; Female NHP, 0.5 mg/kg, 7 days
  HCT: 0.38 L/L
[5]; [19]
  HCT: 0.43 L/L
[5]; [20]
  HCT: 0.41 L/L
[5]; [21]
  HCT: 0.4 L/L
[5]; Male NHP, 0.005 mg/kg, 3 days
  HCT: 0.4 L/L
[5]; Male NHP, 0.005 mg/kg, 7 days
  HCT: 0.39 L/L
[5]; [22]
  HCT: 0.42 L/L
[5]; [23]
  HCT: 0.44 L/L
[5]; Male NHP, 0.05 mg/kg, 24 hours
  HCT: 0.39 L/L
[5]; Male NHP, 0.05 mg/kg, 3 days
  HCT: 0.41 L/L
[5]; Male NHP, 0.05 mg/kg, 7 days
  HCT: 0.42 L/L
[5]; Male NHP, 0.05 mg/kg, Pre-dose
  HCT: 0.44 L/L
[5]; [24]
  HCT: 0.34 L/L
[5]; Male NHP, 0.5 mg/kg, 24 hours
  HCT: 0.37 L/L
[5]; Male NHP, 0.5 mg/kg, 3 days
  HCT: 0.39 L/L
[5]; Male NHP, 0.5 mg/kg, 7 days
  HCT: 0.39 L/L
[5]; Male NHP, 0.5 mg/kg, Pre-dose
  HCT: 0.46 L/L
[6]
  increase in neutrophil count above control: four fold increase
[7]; IM, saline
  G-CSF Serum Concentration 8-12 hours after administration: ~20 to 80 pg/mL
[7]; IV (Lipoplex)
  G-CSF Serum Concentration 8-12 hours after administration: ~30 pg/mL
[7]; SC, saline
  G-CSF Serum Concentration 8-12 hours after administration: ~10 to 40 pg/mL
[8]
  innate immune recognition, cytokine production (IFN-alpha and others): induced IFN-alpha, TNF-alpha and IP10
